# Biological target: KCNQ5-ER-c
substance,measurement,value
KCNQ2-ER-n (from UniProt O43526),block of KCNQ2/5-tandem currents by 10 mM TEA in HEK293T cells,48 % block

# From publication PMC9060518
